Measurements from patent publication US7910102B2 (priority 2006, dated 2011).
“Also recorded” adds a separate entry of the source.

Tests used:
human Kv1.3 [1] = target: T1, human Kv1.3 (Homo sapiens, UniProt P22001); format: cell-based
human Kv1.1 = target: T2, human Kv1.1 (Homo sapiens, UniProt Q09470); format: cell-based; conditions: read-out: hKv1.1: IC50
T2 construct: expressed in transfected cells; host or cells: HEK293

[2] = system: T cell proliferation, human PBMCs; experiment: T cell proliferation (3H-thymidine incorporation) in anti-CD3/anti-CD28 stimulated human PBMCs; format: cell-based; conditions: antibodies to CD3 and CD28
Text: Inhibition of T cell proliferation following anti-CD3 and anti-CD28 antibody stimulation of PBMCs. PBMC's were previously isolated from normal human donor Leukophoresis packs, purified by density gradient centrifugation (Ficoll Hypaque), cryopreserved in CPZ Cryopreservation Medium Complete (INCELL, MCPZF-100 plus 10% DMSO final). PBMC's were thawed (95% viability), washed, and seeded at 2×10^5 cells per well in culture medium (RPMI medium 1640; GIBCO) supplemented with 10% fetal calf serum, 100 U/ml penicillin, […] streptomycin, 2 mM L-glutamine, 100 μM non-essential amino acids, and 20 μM 2-ME) in 96-well flat-bottom tissue culture plates. Cells were pre-incubated with either anti-human CD32 (FcyRII) blocking antibody (per manufacturers instructions EASY SEP Human Biotin Selection Kit #18553, StemCell Technologies Vancouver, BC) or Fc-L10-ShK (100 nM-0.001 nM final) for 45 min. Fc-L10-ShK (100 nM-0.001 nM final) was then added to the cells containing anti-human CD32 blocking antibody while medium was added to the cells containing Fc-L10-ShK. Both sets were incubated for an additional 45 min before stimulating for 48 hr with aCD3/aCD28 (0.2 ng/ml and 100 ng/ml, respectively). Final assay volume was 200 ul. […] Cells were then harvested onto glass fiber filters and radioactivity was measured in a B-scintillation counter.

CD40L on CD4+ T cells = format: cell-based, human
IL-2R on CD4+ T cells = format: cell-based, human
human Kv1.3 [3] = target: T1, human Kv1.3; experiment: Immunohistochemistry of peptibody binding to HEK 293 cells overexpressing human Kv1.3; parameters: expressed in transfected cells; conditions: 5 μg/ml peptibody
Method: Immunohistochemistry analysis of Fc-L10-ShK[1-35] binding to HEK 293 cells overexpressing human Kv1.3. HEK 293 cells overexpressing human Kv1.3 (HEK Kv1.3) were obtained from BioFocus plc (Cambridge, UK) and maintained per manufacturer's recommendation. The parental HEK 293 cell line was used as a control. Cells were plated on Poly-D-Lysine 24 well plates (#35-4414; Becton-Dickinson, Bedford, Mass.) and allowed to grow to approximately 70% confluence. HEK KV1.3 were plated at 0.5×10e5 cells/well in 1 ml/well of medium. HEK 293 cells were plated at a density of 1.5×10e5 cells/well in 1 ml/well of medium. Before staining, cells were fixed with formalin (Sigma HT50-1-1 Formalin solution, diluted 1:1 with PBS/0.5% BSA before use) by removing cell growth medium, adding 0.2 ml/well formalin solution and incubating at room temperature for ten minutes. Cells were stained by incubating with 0.2 ml/well of 5 μg/ml Fc-L10-ShK[1-35] in PBS/BSA for 30′ at room temperature. Fc-L10-ShK[1-35] was aspirated and then the cells were washed one time with PBS/0.5% BSA. Detection antibody (Goat F(ab)2 anti-human IgG-phycoerythrin; Southern Biotech Associates, Birmingham, Ala.) was added to the wells at 5 μg/ml in PBS/0.5% BSA and incubated for 30′ at room temperature. Wash cells once with PBS/0.5% BSA and examine using confocal microscopy (LSM 510 Meta Confocal Microscope; Carl Zeiss AG, Germany). […]

human Kv1.3 [4] = target: T1, human Kv1.3; experiment: Whole cell immunoassay (ELISA) of binding to fixed HEK 293 cells overexpressing Kv1.3; parameters: expressed in transfected cells
Method: Our peptibody reagent can be a useful and convenient tool for monitoring Kv1.3 channel expression in patients and have utility in diagnostic applications. The procedure shown in FIG. 34A and FIG. 34B follows.
FIG. 34A. A whole cell immunoassay was performed to show binding of intact Fc-L10-ShK[1-35] to Kv1.3 transfected HEK 293 cells (BioFocus plc, Cambridge, UK). Parent HEK 293 cells or HEK Kv1.3 cells were plated at 3×10e4 cells/well in poly-D-Lysine coated ninety-six well plates (#35-4461; Becton-Dickinson, Bedford, Mass.). Cells were fixed with formalin (Sigma HT50-1-1 Formalin solution, diluted 1:1 with PBS/0.5% BSA before use) by removing cell growth medium, adding 0.2 ml/well formalin solution and incubating at room temperature for 25 minutes and then washing one time with 100 μl/well of PBS/0.5% BSA. Wells were blocked by addition of 0.3 ml/well of BSA blocker (50-61-00; KPL 10% BSA Diluent/Blocking Solution, diluted 1:1 with PBS; KPL, Gaithersburg, Md.) followed by incubation at room temperature, with shaking, for 3 hr. Plates were washed 2 times with 1×KP Wash Buffer (50-63-00; KPL). […] Absorbance was read at 450 nm on a Molecular Devices SpectroMax 340 (Sunnyvale, Calif.).
FIG. 34B. […] Absorbances were read at 405 nm after stopping reactions by addition of 0.1 ml/well of 1% SDS.

T1 sequence (P22001 whole entry): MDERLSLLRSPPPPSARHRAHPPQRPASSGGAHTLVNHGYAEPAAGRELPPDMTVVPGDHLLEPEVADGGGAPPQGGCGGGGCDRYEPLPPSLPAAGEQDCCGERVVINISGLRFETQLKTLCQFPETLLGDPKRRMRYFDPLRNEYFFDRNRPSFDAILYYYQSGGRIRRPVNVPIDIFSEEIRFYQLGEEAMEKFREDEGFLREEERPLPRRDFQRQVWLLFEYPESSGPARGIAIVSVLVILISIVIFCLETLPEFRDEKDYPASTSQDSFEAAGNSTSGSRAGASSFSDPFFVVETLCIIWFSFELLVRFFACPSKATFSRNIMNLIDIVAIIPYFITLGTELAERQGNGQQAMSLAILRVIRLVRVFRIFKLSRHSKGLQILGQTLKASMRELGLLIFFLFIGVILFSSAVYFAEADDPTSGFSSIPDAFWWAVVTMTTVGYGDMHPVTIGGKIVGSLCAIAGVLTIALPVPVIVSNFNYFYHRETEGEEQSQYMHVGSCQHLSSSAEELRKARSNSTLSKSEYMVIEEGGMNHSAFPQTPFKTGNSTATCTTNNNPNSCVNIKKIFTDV
T2 sequence (Q09470 whole entry): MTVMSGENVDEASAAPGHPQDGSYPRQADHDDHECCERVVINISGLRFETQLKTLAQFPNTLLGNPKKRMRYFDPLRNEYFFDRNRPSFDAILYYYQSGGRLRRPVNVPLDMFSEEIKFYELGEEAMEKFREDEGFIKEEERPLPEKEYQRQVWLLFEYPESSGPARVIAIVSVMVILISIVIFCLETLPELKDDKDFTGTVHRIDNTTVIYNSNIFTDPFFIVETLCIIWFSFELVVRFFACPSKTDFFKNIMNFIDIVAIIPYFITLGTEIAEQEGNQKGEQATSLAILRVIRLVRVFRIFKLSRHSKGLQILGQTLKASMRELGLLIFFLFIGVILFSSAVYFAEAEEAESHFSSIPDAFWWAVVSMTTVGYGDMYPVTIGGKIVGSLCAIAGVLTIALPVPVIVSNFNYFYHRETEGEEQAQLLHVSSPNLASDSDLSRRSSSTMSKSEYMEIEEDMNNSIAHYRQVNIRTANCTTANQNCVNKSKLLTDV

Fc-L10-OSK1[E16K,K20D] was tested, and the “fold less potent than the synthetic OSK1 toxin peptide” value (human Kv1.3 [1]) was “approximately 6 fold” and the IC50 (human Kv1.1) was greater than 100 nM.

With “Fc-L10-ShK[1-35]: Fc region of human IgG1 fused in-frame to a 10 amino acid linker and the Kv1.3 inhibitor peptide ShK[1-35]; peptibody” the “inhibition of T cell proliferation (in words)” value [2] was “inhibits T cell proliferation; also recorded: blocked T cell proliferation; also recorded: potently inhibits proliferation of T cells in a dose-dependent manner”, the “block of thapsigargin-induced upregulation of CD40L on T cells (in words)” value (CD40L on CD4+ T cells) was “suppressed” and the “block of thapsigargin-induced upregulation of the IL-2R on T cells (in words)” value (IL-2R on CD4+ T cells) was “suppressed”. For the same substance, the “staining of Kv1.3-transfected HEK 293 cells (in words)” value (human Kv1.3 [3]) was “stains HEK 293 cells stably transfected with human Kv1.3” and the “binding to fixed HEK 293 cells overexpressing Kv1.3 (in words)” value (human Kv1.3 [4]) was “dose-dependent increase in response; also recorded: high affinity binding to its target”.
